Source: article PMC9935546

Biological target: T1, endogenous VDAC2 (voltage-dependent anion-selective channel protein 2) (human (endogenous in HONE1 and SUNE1)), P45880
T1 chain: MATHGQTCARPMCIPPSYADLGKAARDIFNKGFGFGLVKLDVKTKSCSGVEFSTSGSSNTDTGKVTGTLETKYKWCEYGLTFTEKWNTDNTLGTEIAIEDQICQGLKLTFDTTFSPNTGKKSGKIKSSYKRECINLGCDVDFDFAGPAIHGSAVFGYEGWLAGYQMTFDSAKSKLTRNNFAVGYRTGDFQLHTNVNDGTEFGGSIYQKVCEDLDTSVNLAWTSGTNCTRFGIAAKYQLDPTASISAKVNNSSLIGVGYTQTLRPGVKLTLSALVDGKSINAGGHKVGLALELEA
Assay: cross-linking; NPC cells in PBS with 5 mM DSS, 37 °C, 30 min, quenched with 20 mM Tris-HCl; Western blot; 24 h after IR; WT and TRIM21-KO cells
Details: remark: other sources report otherwise

stoichiometry N: > 3
B1: endogenous VDAC2 (voltage-dependent anion-selective channel protein 2), P45880 1-294 (natural protein)
chain: MATHGQTCARPMCIPPSYADLGKAARDIFNKGFGFGLVKLDVKTKSCSGVEFSTSGSSNTDTGKVTGTLETKYKWCEYGLTFTEKWNTDNTLGTEIAIEDQICQGLKLTFDTTFSPNTGKKSGKIKSSYKRECINLGCDVDFDFAGPAIHGSAVFGYEGWLAGYQMTFDSAKSKLTRNNFAVGYRTGDFQLHTNVNDGTEFGGSIYQKVCEDLDTSVNLAWTSGTNCTRFGIAAKYQLDPTASISAKVNNSSLIGVGYTQTLRPGVKLTLSALVDGKSINAGGHKVGLALELEA
